Common to all, as to experiment: ITC
A general note: In ITC the heat of successive injections is recorded.

In experiment [1] the target is CSN5^ΔC,R106T (human, UniProt Q92905 1-257, R106T).
Experiment [2] has as its target CSN6^ΔC,V115E (human, UniProt Q7L5N1 31-211, V115E).
For experiment [3], the target named is CSN6^ΔC,H44A (human, UniProt Q7L5N1 31-211, H44A).

CSN5^ΔC,R106T, sequence (Q92905 1-257 R106T): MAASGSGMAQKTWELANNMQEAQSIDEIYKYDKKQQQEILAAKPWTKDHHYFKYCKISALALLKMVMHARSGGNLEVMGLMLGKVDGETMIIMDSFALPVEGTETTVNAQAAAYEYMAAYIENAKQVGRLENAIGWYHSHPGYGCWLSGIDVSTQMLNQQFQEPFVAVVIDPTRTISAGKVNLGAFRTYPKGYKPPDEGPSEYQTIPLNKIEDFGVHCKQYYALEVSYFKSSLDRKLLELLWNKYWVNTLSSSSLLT

B1: CSN6^ΔC (human CSN6 31–211 fragment) (domain or fragment)
chain: MACGVTGSVSVALHPLVILNISDHWIRMRSQEGRPVQVIGALIGKQEGRNIEVMNSFELLSHTVEEKIIIDKEYYYTKEEQFKQVFKELEFLGWYTTGGPPDPSDIHVHKQVCEIIESPLFLKLNPMTKHTDLPVSVFESVIDIINGEATMLFAELTYTLATEEAERIGVDHVARMTATGS
In experiment [1], B1 registered a dissociation constant (Kd) of 5.8 µM.

B2: CSN5^ΔC,WT (human CSN5 1–257 fragment) (domain or fragment)
chain: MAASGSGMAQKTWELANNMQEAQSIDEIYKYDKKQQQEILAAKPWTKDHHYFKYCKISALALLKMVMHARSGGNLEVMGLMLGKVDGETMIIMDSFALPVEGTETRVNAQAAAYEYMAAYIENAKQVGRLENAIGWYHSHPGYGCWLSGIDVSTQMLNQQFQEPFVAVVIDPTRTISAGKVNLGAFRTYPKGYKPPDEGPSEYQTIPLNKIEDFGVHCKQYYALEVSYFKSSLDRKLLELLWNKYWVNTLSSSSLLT
For B2, the Kd was 29 µM in experiment [2] and 9.2 µM in experiment [3].

A word on the Kd: it is the concentration at which binding is half-saturated. High values mean lower affinity, low ones higher affinity.

The values are drawn from paper PMC4140821 (2014).
